# According to the supplement of paper PMC9112550, “Optimization of the antimicrobial peptide Bac7 by deep mutational scanning” (BMC Biology, 2022):
# Tested on: Escherichia coli TOP10
# Test: shrunken log2 fold change of peptide-encoding DNA abundance (4.5 h post-induction vs induction); higher = less antimicrobial activity (less host growth inhibition)
# Conditions: time post-induction: 4.5 h; library: site-saturation at positions 5, 18, 19, 20
# 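Further: peptides expressed intracellularly from a pBAD plasmid library in pooled LB shake-flask culture, induced with 0.3% L-arabinose, DNA abundance read by NGS, three biological replicates, DESeq2 with apeglm shrinkage.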
row,Sequence,shrunken log2 fold change
1,RRIRLRPPRLPRPRPRPPGSPRP,0.226
2,RRIRLRPPRLPRPRPRPPHHPRP,0.253
3,RRIRLRPPRLPRPRPRPPHLPRP,-0.0637
4,RRIRLRPPRLPRPRPRPPIQPRP,0.174
5,RRIRLRPPRLPRPRPRPPKDPRP,0.137
6,RRIRLRPPRLPRPRPRPPKIPRP,0.0251
7,RRIRLRPPRLPRPRPRPPMDPRP,0.0462
8,RRIRLRPPRLPRPRPRPPNAPRP,0.121
9,RRIRLRPPRLPRPRPRPPNQPRP,0.0881
10,RRIRLRPPRLPRPRPRPPQAPRP,0.872
11,RRIRLRPPRLPRPRPRPPQIPRP,0.0736
12,RRIRLRPPRLPRPRPRPPQPPRP,0.816
13,RRIRLRPPRLPRPRPRPPRCPRP,0.744
14,RRIRLRPPRLPRPRPRPPRGPRP,0.637
15,RRIRLRPPRLPRPRPRPPSGPRP,0.0718
16,RRIRLRPPRLPRPRPRPPSKPRP,0.148
17,RRIRLRPPRLPRPRPRPPVEPRP,0.638
18,RRIRLRPPRLPRPRPRPPVMPRP,0.154
19,RRIRLRPPRLPRPRPRPPWNPRP,0.939
20,RRIRLRPPRLPRPRPRPPWTPRP,0.411
21,RRIRLRPPRLPRPRPRPPYGPRP,0.0785
22,RRIRLRPPRLPRPRPRPPYIPRP,-0.081
23,RRIRLRPPRLPRPRPRPQADPRP,0.112
24,RRIRLRPPRLPRPRPRPQAPPRP,0.138
25,RRIRLRPPRLPRPRPRPQAYPRP,-0.126

row,Sequence,shrunken log2 fold change
1,RRIRLRPPRLPRPRPRPQCQPRP,-0.399
2,RRIRLRPPRLPRPRPRPQCSPRP,-0.127
3,RRIRLRPPRLPRPRPRPQCVPRP,0.0615
4,RRIRLRPPRLPRPRPRPQEDPRP,-0.0336
5,RRIRLRPPRLPRPRPRPQEMPRP,-0.0408
6,RRIRLRPPRLPRPRPRPQFAPRP,0.0774
7,RRIRLRPPRLPRPRPRPQFEPRP,-0.12
8,RRIRLRPPRLPRPRPRPQHIPRP,-0.812
9,RRIRLRPPRLPRPRPRPQHNPRP,-0.507
10,RRIRLRPPRLPRPRPRPQHVPRP,-0.316
11,RRIRLRPPRLPRPRPRPQILPRP,-0.172
12,RRIRLRPPRLPRPRPRPQKDPRP,-0.449
13,RRIRLRPPRLPRPRPRPQLIPRP,-0.0529
14,RRIRLRPPRLPRPRPRPQNHPRP,-0.683
15,RRIRLRPPRLPRPRPRPQPHPRP,0.077
16,RRIRLRPPRLPRPRPRPQTAPRP,0.0246
17,RRIRLRPPRLPRPRPRPQTPPRP,0.358
18,RRIRLRPPRLPRPRPRPQWKPRP,0.0162
19,RRIRLRPPRLPRPRPRPRAHPRP,0.244
20,RRIRLRPPRLPRPRPRPRANPRP,0.126
21,RRIRLRPPRLPRPRPRPRCTPRP,0.0989
22,RRIRLRPPRLPRPRPRPRCYPRP,0.0161
23,RRIRLRPPRLPRPRPRPRDHPRP,0.0215
24,RRIRLRPPRLPRPRPRPRDKPRP,0.133
25,RRIRLRPPRLPRPRPRPRFHPRP,-0.208

row,Sequence,shrunken log2 fold change
1,RRIRLRPPRLPRPRPRPRFIPRP,-0.243
2,RRIRLRPPRLPRPRPRPRFPPRP,-0.0246
3,RRIRLRPPRLPRPRPRPRILPRP,-0.211
4,RRIRLRPPRLPRPRPRPRKYPRP,-0.882
5,RRIRLRPPRLPRPRPRPRNEPRP,-0.0675
6,RRIRLRPPRLPRPRPRPRNQPRP,-0.204
7,RRIRLRPPRLPRPRPRPRPDPRP,0.177
8,RRIRLRPPRLPRPRPRPRRFPRP,0.142
9,RRIRLRPPRLPRPRPRPRSCPRP,-0.0664
10,RRIRLRPPRLPRPRPRPRTYPRP,-0.319
11,RRIRLRPPRLPRPRPRPRWYPRP,-0.206
12,RRIRLRPPRLPRPRPRPRYNPRP,-0.093
13,RRIRLRPPRLPRPRPRPRYQPRP,-0.0283
14,RRIRLRPPRLPRPRPRPSCQPRP,-0.256
15,RRIRLRPPRLPRPRPRPSCTPRP,-0.501
16,RRIRLRPPRLPRPRPRPSDAPRP,0.0959
17,RRIRLRPPRLPRPRPRPSDQPRP,-0.18
18,RRIRLRPPRLPRPRPRPSDWPRP,-0.106
19,RRIRLRPPRLPRPRPRPSEEPRP,-0.0637
20,RRIRLRPPRLPRPRPRPSFGPRP,0.197
21,RRIRLRPPRLPRPRPRPSFPPRP,-0.159
22,RRIRLRPPRLPRPRPRPSFRPRP,-0.358
23,RRIRLRPPRLPRPRPRPSGWPRP,0.0673
24,RRIRLRPPRLPRPRPRPSHNPRP,-0.735
25,RRIRLRPPRLPRPRPRPSITPRP,-0.436

row,Sequence,shrunken log2 fold change
1,RRIRLRPPRLPRPRPRPSIWPRP,-0.548
2,RRIRLRPPRLPRPRPRPSLHPRP,-0.471
3,RRIRLRPPRLPRPRPRPSQRPRP,-0.00321
4,RRIRLRPPRLPRPRPRPSQSPRP,-0.511
5,RRIRLRPPRLPRPRPRPSRRPRP,-0.332
6,RRIRLRPPRLPRPRPRPSTWPRP,-0.53
7,RRIRLRPPRLPRPRPRPSWRPRP,0.276
8,RRIRLRPPRLPRPRPRPSWYPRP,-0.294
9,RRIRLRPPRLPRPRPRPSYEPRP,-0.496
10,RRIRLRPPRLPRPRPRPTADPRP,0.346
11,RRIRLRPPRLPRPRPRPTANPRP,0.329
12,RRIRLRPPRLPRPRPRPTEKPRP,-0.0343
13,RRIRLRPPRLPRPRPRPTFTPRP,-0.346
14,RRIRLRPPRLPRPRPRPTGEPRP,0.205
15,RRIRLRPPRLPRPRPRPTGVPRP,-0.0506
16,RRIRLRPPRLPRPRPRPTHGPRP,0.213
17,RRIRLRPPRLPRPRPRPTILPRP,0.0347
18,RRIRLRPPRLPRPRPRPTKHPRP,-0.14
19,RRIRLRPPRLPRPRPRPTKKPRP,0.12
20,RRIRLRPPRLPRPRPRPTKPPRP,0.0884
21,RRIRLRPPRLPRPRPRPTKRPRP,0.00619
22,RRIRLRPPRLPRPRPRPTLGPRP,0.222
23,RRIRLRPPRLPRPRPRPTMQPRP,-0.0477
24,RRIRLRPPRLPRPRPRPTNGPRP,0.129
25,RRIRLRPPRLPRPRPRPTNVPRP,-0.165

row,Sequence,shrunken log2 fold change
1,RRIRLRPPRLPRPRPRPTPIPRP,0.3
2,RRIRLRPPRLPRPRPRPTQGPRP,0.852
3,RRIRLRPPRLPRPRPRPTRVPRP,0.389
4,RRIRLRPPRLPRPRPRPTRWPRP,0.456
5,RRIRLRPPRLPRPRPRPTSLPRP,-0.112
6,RRIRLRPPRLPRPRPRPTTAPRP,0.115
7,RRIRLRPPRLPRPRPRPTTCPRP,0.0385
8,RRIRLRPPRLPRPRPRPTTHPRP,-0.102
9,RRIRLRPPRLPRPRPRPTTIPRP,0.255
10,RRIRLRPPRLPRPRPRPTTQPRP,0.216
11,RRIRLRPPRLPRPRPRPTVAPRP,0.0307
12,RRIRLRPPRLPRPRPRPTVSPRP,0.0646
13,RRIRLRPPRLPRPRPRPTWCPRP,0.107
14,RRIRLRPPRLPRPRPRPTYMPRP,-0.469
15,RRIRLRPPRLPRPRPRPVCCPRP,-0.185
16,RRIRLRPPRLPRPRPRPVCNPRP,-0.0299
17,RRIRLRPPRLPRPRPRPVDCPRP,-0.456
18,RRIRLRPPRLPRPRPRPVDDPRP,-0.219
19,RRIRLRPPRLPRPRPRPVDKPRP,-0.138
20,RRIRLRPPRLPRPRPRPVGKPRP,-0.0227
21,RRIRLRPPRLPRPRPRPVHWPRP,0.4
22,RRIRLRPPRLPRPRPRPVKCPRP,-0.122
23,RRIRLRPPRLPRPRPRPVKPPRP,0.0377
24,RRIRLRPPRLPRPRPRPVLFPRP,-0.0101
25,RRIRLRPPRLPRPRPRPVLNPRP,-0.325

row,Sequence,shrunken log2 fold change
1,RRIRLRPPRLPRPRPRPVPHPRP,-0.128
2,RRIRLRPPRLPRPRPRPVRYPRP,-0.162
3,RRIRLRPPRLPRPRPRPVSAPRP,0.0663
4,RRIRLRPPRLPRPRPRPVSDPRP,0.128
5,RRIRLRPPRLPRPRPRPVSLPRP,-0.0897
6,RRIRLRPPRLPRPRPRPVSQPRP,0.0349
7,RRIRLRPPRLPRPRPRPVTLPRP,-0.751
8,RRIRLRPPRLPRPRPRPVTTPRP,-0.216
9,RRIRLRPPRLPRPRPRPVVHPRP,0.93
10,RRIRLRPPRLPRPRPRPVVWPRP,0.547
11,RRIRLRPPRLPRPRPRPVYTPRP,-0.0286
12,RRIRLRPPRLPRPRPRPWCEPRP,-0.271
13,RRIRLRPPRLPRPRPRPWDHPRP,-1.04
14,RRIRLRPPRLPRPRPRPWDWPRP,0.185
15,RRIRLRPPRLPRPRPRPWFKPRP,-0.86
16,RRIRLRPPRLPRPRPRPWGCPRP,0.0644
17,RRIRLRPPRLPRPRPRPWHPPRP,-0.0174
18,RRIRLRPPRLPRPRPRPWILPRP,-0.0709
19,RRIRLRPPRLPRPRPRPWITPRP,-0.028
20,RRIRLRPPRLPRPRPRPWIWPRP,-0.0106
21,RRIRLRPPRLPRPRPRPWKFPRP,-0.00232
22,RRIRLRPPRLPRPRPRPWKGPRP,0.0434
23,RRIRLRPPRLPRPRPRPWLFPRP,0.193
24,RRIRLRPPRLPRPRPRPWNWPRP,0.0524
25,RRIRLRPPRLPRPRPRPWPKPRP,-0.0141
